The target in assay [1] is T1, human VEGF165 (human, UniProt P15692-4 27-191).
T1 construct: also called hVEGF165

Assay [2] concerns the target T1, human VEGF165. Put plainly: kinetic dissociation from hVEGF165, as described in WO/0075319.
In assay [3] the target is T1, human VEGF165. Put plainly: half-life of dissociation of the trap-hVEGF165 complex, as described in WO/0075319.
In assay [4] the target is T1, human VEGF165. The experiment in a line: affinity determination for human VEGF-165 (method not named in Example 7).
Assay [5] addresses T1, human VEGF165. Put plainly: affinity determination for human VEGF-165 (method not named in Example 7); second row for SEQ ID NO: 26.

The term Kd denotes a measure of binding affinity in units of concentration. Lower therefore signals a tighter complex. Usually koff stands for a measure of how fast the partners let go of each other. A lower koff goes with a long-lived complex. One may read the kon as the second-order rate constant of association.

Read-outs that look alike come from different tables or passages of the source.

T1 sequence (P15692 other isoform, or with tags, fused parts or gaps limits assumed): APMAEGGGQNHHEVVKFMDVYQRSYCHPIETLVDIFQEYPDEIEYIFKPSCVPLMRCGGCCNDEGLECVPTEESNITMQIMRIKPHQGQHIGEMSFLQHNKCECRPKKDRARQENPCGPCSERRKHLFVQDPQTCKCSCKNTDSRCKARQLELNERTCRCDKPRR

B1: recombinant monomeric R1R2-myc myc his (receptor)
chain: SDTGRPFVEMYSEIPEIIHMTEGRELVIPCRVTSPNITVTLKKFPLDTLIPDGKRIIWDSRKGFIISNATYKEIGLLTCEATVNGHLYKTNYLTHRQTNTIIDVVLSPSHGIELSVGEKLVLNCTARTELNVGIDFNWEYPSSKHQHKKLVNRDLKTQSGSEMKKFLSTLTIDGVTRSDQGLYTCAASSGLMTKKNSTFVRVHEK
modifications: C-terminal myc-myc-his tag is not in the letters.
notes: Monomer; The construct is named only, not described; also called R1R2-myc myc his monomer; not shown: myc-myc-his tag and any linker to it
On to B1, for which the dissociation constant (Kd) in assay [1] was roughly 1000 pM. This molecule gave a dissociation rate constant (koff) in assay [2] of 0.00674 s⁻¹. For the same molecule, in assay [3], the “T1/2” value was determined as 0.028 h.

B2: VEGF mini-trap of SEQ ID NO:26 (receptor)
chain: SDTGRPFVEMYSEIPEIIHMTEGRELVIPCRVTSPNITVTLKKFPLDTLIPDGKRIIWDSRKGFIISNATYKEIGLLTCEATVNGHLYKTNYLTHRQTNTIIDVVLSPSHGIELSVGEKLVLNCTARTELNVGIDFNWEYPSSKHQHKKLVNRDLKTQSGSEMKKFLSTLTIDGVTRSDQGLYTCAASSGLMTKKNSTFVRVHEKDKTHTCPPC
notes: Secreted from CHO K1 cells; Covalent dimer of about 64 kDa
In the case of B2, in assay [4], the dissociation constant Kd turned out to be 0.328 pM, the koff amounted to 6.56e-06 s⁻¹ and the on-rate (kon) stood at 2e+07 M⁻¹ s⁻¹. Also, in assay [5], the affinity, expressed as Kd, was 0.221 pM; the off-rate (koff) worked out at 5.77e-06 s⁻¹; the on-rate (kon) was found to be 2.61e+07 M⁻¹ s⁻¹.

B3: uncleaved VEGF trap containing a thrombin cleavage site (Fc fusion)
chain: SDTGRPFVEMYSEIPEIIHMTEGRELVIPCRVTSPNITVTLKKFPLDTLIPDGKRIIWDSRKGFIISNATYKEIGLLTCEATVNGHLYKTNYLTHRQTNTIIDVVLSPSHGIELSVGEKLVLNCTARTELNVGIDFNWEYPSSKHQHKKLVNRDLKTQSGSEMKKFLSTLTIDGVTRSDQGLYTCAASSGLMTKKNSTFVRVHEKDKTHTCPPCLVPRGSPAPELLGGPSVFLFPPKPKDTLMISRTPEVTCVVVDVSHEDPEVKFNWYVDGVEVHNAKTKPREEQYNSTYRVVSVLTVLHQDWLNGKEYKCKVSNKALPAPIEKTISKAKGQPREPQVYTLPPSRDELTKNQVSLTCLVKGFYPSDIAVEWESNGQPENNYKTTPPVLDSDGSFFLYSKLTVDKSRWQQGNVFSCSVMHEALHNHYTQKSLSLSPGK
In assay [2], B3 yielded a koff of 4.93e-05 s⁻¹. For the same molecule, the “T1/2” value in assay [3] was determined as 3.9 h.

B4: cleaved VEGF mini-trap (receptor)
chain: SDTGRPFVEMYSEIPEIIHMTEGRELVIPCRVTSPNITVTLKKFPLDTLIPDGKRIIWDSRKGFIISNATYKEIGLLTCEATVNGHLYKTNYLTHRQTNTIIDVVLSPSHGIELSVGEKLVLNCTARTELNVGIDFNWEYPSSKHQHKKLVNRDLKTQSGSEMKKFLSTLTIDGVTRSDQGLYTCAASSGLMTKKNSTFVRVHEKDKTHTCPPCLVPRGS
notes: Product of thrombin digestion of the uncleaved VEGF trap; also called thrombin-cleaved dimeric VEGF mini-trap; truncated trap
B4 showed a koff in assay [2] of 5.46e-05 s⁻¹. The “T1/2” value in assay [3] turned out to be 3.53 h.

Source of the values: US20050043236A1 (published 2005).
